Molecular target: plasminogen
Sequence (P00747 20-810): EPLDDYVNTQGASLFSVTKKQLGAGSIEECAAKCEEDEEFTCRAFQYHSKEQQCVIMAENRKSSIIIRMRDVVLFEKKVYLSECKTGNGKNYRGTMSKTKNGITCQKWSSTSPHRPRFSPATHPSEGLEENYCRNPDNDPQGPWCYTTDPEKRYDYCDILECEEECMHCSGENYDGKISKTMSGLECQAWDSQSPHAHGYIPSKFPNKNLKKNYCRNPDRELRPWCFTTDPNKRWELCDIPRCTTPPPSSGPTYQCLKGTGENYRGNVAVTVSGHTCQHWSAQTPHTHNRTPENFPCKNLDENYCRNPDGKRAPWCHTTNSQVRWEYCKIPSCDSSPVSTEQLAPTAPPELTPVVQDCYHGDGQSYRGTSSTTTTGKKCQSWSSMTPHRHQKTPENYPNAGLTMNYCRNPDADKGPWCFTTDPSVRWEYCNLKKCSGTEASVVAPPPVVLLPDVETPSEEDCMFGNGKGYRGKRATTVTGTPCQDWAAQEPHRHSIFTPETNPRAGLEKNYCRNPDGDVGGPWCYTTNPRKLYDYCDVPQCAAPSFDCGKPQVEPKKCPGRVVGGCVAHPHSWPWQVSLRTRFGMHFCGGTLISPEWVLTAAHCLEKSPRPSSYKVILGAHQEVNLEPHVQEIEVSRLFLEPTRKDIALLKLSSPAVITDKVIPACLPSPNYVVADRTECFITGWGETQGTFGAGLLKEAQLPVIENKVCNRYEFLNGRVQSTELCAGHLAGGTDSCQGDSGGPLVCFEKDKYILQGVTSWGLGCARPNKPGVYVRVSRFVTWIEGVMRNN

B1: recombinant streptokinase from Streptococcus equisimilis (ATCC 9542) (protein)
chain: IAGPEWLLDRPSVNNSQLVVSVAGTVEGTNQDISLKFFEIDLTSRPAHGGKTEQGLSPKSKPFATDSGAMSHKLEKADLLKAIQEQLIANVHSNDDYFEVIDFASDATITDRNGKVYFADKDGSVTLPTQPVQEFLLSGHVRVRPYKEKPIQNQAKSVDVEYTVQFTPLNPDDDFRPGLKDTKLLKTLAIGDTITSQELLAQAQSILNKNHPGYTIYERDSSIVTHDNDIFRTILPMDQEFTYRVKNREQAYRINKKSGLNEEINNTDLISEKYYVLKKGEKPYDPFDRSHLKLFTIKYVDVDTNELLKSEQLLTASERNLDFRDLYDPRDKAKLLYNNLDAFGIMDYTLTGKVEDNHDDTNRIITVYMGKRPEGENASYHLAYDKDRYTEEEREVYSYLRYTGTPIPDNPNDK
activity in two-stage plasminogen activation assay (plasmin assayed with H-D-Val-Leu-Lys-p-nitroanilide, A405): 97,500+/-2500 IU/mg protein

From patent US7105327
